Experimental data as given in patent US7056900B2, “Disaccharide derivatives for treating hyperglycaemia” (Sudzucker Aktiengesellschaft Mannheim Ochsenfurt, priority 1997, dated 2006).

How the values were obtained:
[1] = substrate: OC[C@H]1O[C@H](O[C@H]2[C@H](O)[C@@H](O)[C@H](O)O[C@@H]2CO)[C@H](O)[C@@H](O)[C@@H]1O; test: Inhibition of SI-catalyzed hydrolysis of maltose (SI/maltose), coupled HK/G6PDH optical test; type: biochemical, hog; conditions: other: SI/maltose basic kinetics, substrate, mean, 37° C., pH 7.0
Experimental: The maltase activity was studied using the substrate maltose.
B) In the methods described hereinafter for determining the enzyme activity of sucrase/isomaltase and glucoamylase/maltase under the influence of the substances tested, the amount of glucose or fructose released was determined as measured parameter. This took place in an enzymatic optical test using hexokinase (HK) and glucose-6-phosphate dehydrogenase (G6PDH) as a coupled detection system (Beutler, H.-O.; in: Methods of Enzymatic Analysis; Bergmeyer, H. U.; Bergmeyer, J.; Graβl, M. (editors); 3rd edition; Vol. VI, 2–10). The measurement was made at 37° C. and a pH of 7.0.
(§1) In individual tests, the semimicro assay was used, but this was reduced in some cases to a micro assay.
(§2) C) Before the inhibitor strengths were determined, for each enzyme-substrate combination basic kinetics were established in which not only the Michaelis-Menten constant (KM [mmol/l]) but also the maximum velocity (Vmax [μmol/mLmin]) were determined. […]
(§3) The level of the inhibitor concentrations used depended on the strength of the resulting inhibition. […] The inhibitor constants Ki and Kii were, unless stated otherwise, determined from secondary Lineweaver-Burk plots.

[2] = substrate: OC[C@H]1O[C@@](CO)(O[C@H]2O[C@H](CO)[C@@H](O)[C@H](O)[C@H]2O)[C@@H](O)[C@@H]1O; test: Inhibition of SI-catalyzed hydrolysis of sucrose (SI/sucrose), coupled HK/G6PDH optical test; type: biochemical, hog; conditions: other: SI/sucrose basic kinetics, substrate, mean, 37° C., pH 7.0
Experimental: A) The activity of the SI enzyme complex was studied using three different substrates, that is to say sucrose, maltose and isomaltose.
B) In the methods described hereinafter for determining the enzyme activity of sucrase/isomaltase and glucoamylase/maltase under the influence of the substances tested, the amount of glucose or fructose released was determined as measured parameter. […] The measurement was made at 37° C. and a pH of 7.0.
as §1, §2, §3

B1: sucrase/isomaltase (SI) (Sus scrofa) (protein)
chain: MARKKFSGLEISLIVLFAIVTIIAIALVVVLATKTPAVEEISDSTSTPATTRTTTPYPGSGKCPSELNDPINERINCIPDQFPTQTLCATRGCCWKPWNDSIIPWCFFVDNHGYNVEGTTSTNTGLEAKLNRIPSPTLFGDDINSVLLTTQSQTPNRFRFKITDPNNRRYEVPHQFVKEFSGTAASDTLYDVQVIENPFSIKIIRKSNNRILFDTSIGPLVYSDQYLQLSARLSSEYIYGIGEHIHKRFRHDLYWKTWPIFTRDQLPGDNNNNLYGHQTFFMCIEDTSGKSFGVFLMNSNAMEIFIQPTPIVTYRIIGGILDFYIFLGDTPEQVVQQYQELIGRPAMPAYWSLGFQLSRWDYKSLDVVKEVVQRNREAGIPFDTQVTDIDYMEDKKDFTYDHVAFNGLPEFVQDLHDHGQKYVIILDPAISIQKLASGAAYETYDRGTAQNVWINESDGTTAIIGEVWPGLTVYPDFTSPNCIEWWANECSIFHQVVNYDGLWIDMNEVSSFVHGSEKGCSDNKLNYPPFTPGILDKLLYAKTVCMDSVQYWGKQYDVHSLYGYSMAIATEKAVEKVFRNKRSFILTRSTFAGSGSHAAHWLGDNTASWEQMEWSITGMLEFSLFGIPLVGADICGFVVETTEELCRRWMQLGAFYPFSRNHNAQGYEHQDPAFFGQNSLLVNSSKHYLNIRYTLLPFLYTLFYKAHMFGETVVRPILHEFYEDTNSWIEDTQFLWGPSLLITPVLKQGASTVSAYIPNATWYDYETGAKRPWRKQRVDMYLPADKIGLHLRGGYIIPIQQPAVTTTASRKNPLGLIVALDEYNTAEGDFFWDDGETKDTIQNGSYIFYTFSVSNNKLDIMCTHSSYQEGTTLAFETIKILGLIDAVTEVSVVEGDQPMSAHYNFTYDASNQYLLIYNLKFNLGRNFTVQWDQTFLDAEKFTCYPDTDTITKELCEERGCLWQESHLESKAPECFFPKEDNSYLVQSTQYSSLGVTADLQLNTASTRIKLPSDPIPTLRVEVKYHKDYMLQFKIYDPQNKRYEVPVPLNIPTTPTSTYENRLYDVEIKENPFGIQIRRRSTGKVIWDSRLPGFAFNNQFIQISTRLPSEYIYGFGEVEHTAFKRDLNWNTWGMFTRDQPPGYKLNSYGFHPYYMALEDESHAHGVLLLNSNAMDVTFQPTPALTYRIIGGILDFYMFLGPSPEVATKQYHEVIGRPVMPPYWALGFQLCRYGYRNTSQVEEVYNDMVTAQIPYDVQYTDIDYMERQLDFTIGEEFRELPKFVDKIRNEGMRYIIILDPAISGNETEPYPAFDRGQEKDVFVKWPNTSDICWAKVWPDLPNVTIDESLTEDEAVNASRAHVAFPDFFRNSTAEWWAREIIDFYNNQMKFDGLWIDMNEPSSFVNGTTTNQCRNTELNYPPYFPELTKRTEGLHFRTMCMETEQILSDGSSVLHYDVHNLYGWSQVKPTYDALQKATGKRGIVISRSTYPTAGRWAGHWLGDNYAKWDNLDKSIIGMMEFSLFGISYTGADICGFFNNSEYQLCARWMQLGAFYPYSRNHNIAFTRRQDPASWNETFSEMSRNILNIRYTLLPYFYTQMHEIHAYGGTVIRPLLHEFFNEKPTWDIFKQFLWGPAFLVTPVLEPFADTVQGYVPNARWFDYHTGKDIGIRETFHIFSAPLYEINLHVRGGHILPCQEPAQNTFFSRQNFMKLIVAADDNQTAQGNLFWDDGETIDTYERDLYFLVQFNFNKSILTSTILKNSYINRNEMRLGYVLIWGKEKTSVNEVNLIYNGNKETVPFVEDLNQEILNIDLRGLNVTLDEPIEISWS
notes: isolated by papain digestion from hog small intestine mucosa and enriched by ammoniumsulfate precipitation; from tissue; host or cells: hog small intestine mucosa
Km [1]: 11.2 ± 2.6 mmol/L | Vmax [1]: 5900 µM/min | Km [2]: 58.8 ± 11.4 mmol/L | Vmax [2]: 7700 µM/min
